Assay results: PMC12612594, “Nuclear Magnetic Resonance‐based fragment screen of the E3 ligase Fem‐1 homolog B” (Protein Science : A Publication of the Protein Society, 2025)
Numbering of substitutions follows the chain as printed. In names and notes the source's numbering stands. Several values for one entry are separate records, joined by “and”; a condition that tells them apart may be missing. Identical values can stand only once.

B1: FEM1B‐11: FEM1B construct, mutations L4E, L18E, A21E, L25S, Y84A, I270N, L281E, R321D (protein, UniProt Q9UK73 1-627, looked up, variant L4E L18E A21E L25S Y84A I270N L281E R321D)
Protein fem-1 homolog B: MEGEAGYVYKAASEGKVETLEALLSNRSESDIRYLLGYVSQQGGQRSTPLIIAARNGHAKVVRLLLEHYRVQTQQTGTVRFDGAVIDGATALWCAAGAGHFEVVKLLVSHGANVNHTTVTNSTPLRAACFDGRLDIVKYLVENNANISIANKYDNTCLMIAAYKGHTDVVRYLLEQRADPNAKAHCGATALHFAAEAGHIDIVKELIKWRAAIVVNGHGMTPLKVAAESCKADVVELLLSHADCDRRSRIEALELLGASFANDRENYDINKTYHYLYLAMEERFQDGDNILEKEVLPPIHAYGNRTECRNPQELESIRQDDDALHMEGLIVRERILGADNIDVSHPIIYRGAVYADNMEFEQCIKLWLHALHLRQKGNRNTHKDLLRFAQVFSQMIHLNETVKAPDIECVLRCSVLEIEQSMNRVKNISDADVHNAMDNYECNLYTFLYLVCISTKTQCSEEDQCKINKQIYNLIHLDPRTREGFTLLHLAVNSNTPVDDFHTNDVCSFPNALVTKLLLDCGAEVNAVDNEGNSALHIIVQYNRPISDFLTLHSIIISLVEAGAHTDMTNKQNKTPLDKSTTGVSEILLKTQMKMSLKCLAARAVRANDINYQDQIPRTLEEFVGFH
B2: FEM1B‐4: FEM1B construct, mutations L4E, L18E, L281E, R321D (protein, UniProt Q9UK73 1-627, looked up, variant L4E L18E L281E R321D)
Protein fem-1 homolog B: B1 Protein fem-1 homolog B with E21A, S25L, A84Y, N270I
B3: FEM1B‐6: FEM1B construct, mutations Y84A, I270N, L281E, R321D (protein, UniProt Q9UK73 1-627, looked up, variant Y84A I270N L281E R321D)
Protein fem-1 homolog B: B1 Protein fem-1 homolog B with E4L, E18L, E21A, S25L
B4: FEM1B‐9: FEM1B construct, mutations L4E, A21E, L25S, L281E, R321D (protein, UniProt Q9UK73 1-627, looked up, variant L4E A21E L25S L281E R321D)
Protein fem-1 homolog B: B1 Protein fem-1 homolog B with E18L, A84Y, N270I
B5: FEM1B‐10: FEM1B construct, mutations L4E, L18E, L24S, I270N, L281E (protein, UniProt Q9UK73 1-627, looked up, variant L4E L18E L24S I270N L281E)
Protein fem-1 homolog B: B1 Protein fem-1 homolog B with E21A, L24S, S25L, A84Y, D321R
B6: FEM1B‐8: FEM1B construct, mutations L4E, A21E, L25S, I270N, L281E (protein, UniProt Q9UK73 1-627, looked up, variant L4E A21E L25S I270N L281E)
Protein fem-1 homolog B: B1 Protein fem-1 homolog B with E18L, A84Y, D321R
B7: FEM1B‐5: FEM1B construct, mutations L4E, A21E, L18E, L25S (protein, UniProt Q9UK73 1-627, looked up, variant L4E A21E L18E L25S)
Protein fem-1 homolog B: B1 Protein fem-1 homolog B with A84Y, N270I, E281L, D321R
B8: FEM1B‐3: FEM1B construct, mutations L4E, L18E, L281E (protein, UniProt Q9UK73 1-627, looked up, variant L4E L18E L281E)
Protein fem-1 homolog B: B1 Protein fem-1 homolog B with E21A, S25L, A84Y, N270I, D321R
B9: FEM1B‐7: FEM1B construct, mutations L4E, L18E, L25S, L281E, R321D (protein, UniProt Q9UK73 1-627, looked up, variant L4E L18E L25S L281E R321D)
Protein fem-1 homolog B: B1 Protein fem-1 homolog B with E21A, A84Y, N270I
B10: FEM1B WT: substrate binding domain of FEM1B (residues 1–356), wild type (protein, UniProt Q9UK73 1-356, looked up, fragment)
chain: MEGLAGYVYKAASEGKVLTLAALLLNRSESDIRYLLGYVSQQGGQRSTPLIIAARNGHAKVVRLLLEHYRVQTQQTGTVRFDGYVIDGATALWCAAGAGHFEVVKLLVSHGANVNHTTVTNSTPLRAACFDGRLDIVKYLVENNANISIANKYDNTCLMIAAYKGHTDVVRYLLEQRADPNAKAHCGATALHFAAEAGHIDIVKELIKWRAAIVVNGHGMTPLKVAAESCKADVVELLLSHADCDRRSRIEALELLGASFANDRENYDIIKTYHYLYLAMLERFQDGDNILEKEVLPPIHAYGNRTECRNPQELESIRQDRDALHMEGLIVRERILGADNIDVSHPIIYRGAVYAD
modifications: substrate binding domain

What was measured:
[1] = stability of construct at room temperature; format: physicochemical
Text: Two FEM1B constructs (FEM1B‐1 and FEM1B‐2) were designed to remove free cysteines on the exterior of the protein to prevent disulfide bond formation and prevent aggregation. FEM1B‐3 to FEM1B‐11 were designed to modify hydrophobic residues on the protein surface and reduce the predicted pI away from the pH needed for the experiment. To accomplish this, residues such as Leu, Ile, Val, or Arg were mutated to negatively charged residues (Asp or Glu) to shift the pI to be more acidic. Hydrophobic residues on the surface of the protein were chosen for mutation to also reduce solvent‐exposed hydrophobic patches that may be contributing to the aggregation (Figure S1, Supporting Information).

[2] = thermal shift assay of FEM1B constructs; format: physicochemical; conditions: average of three replicates
Method: The substrate binding domain of FEM1B (residues 1–356, ~42 kDa molecular weight) was prepared for NMR‐based screening. However, this construct (FEM1B WT) was prone to aggregation and was not suitable for the NMR experiments. […] To reduce the potential for aggregation, we prepared several mutants of FEM1B constructs and evaluated their stability using a thermal shift assay (Table 1).

Row | Molecule | stable at room temperature [1] | Tm ± SD [2]
1 | B1 | over 24 h | 48.6 ± 1.7 °C
2 | B2 |  | 35.0 ± 0.5 °C
3 | B3 |  | 37.3 ± 0.04 °C
4 | B4 |  | 28.5 ± 1.3 °C
5 | B5 |  | 36.3 ± 0.1 °C
6 | B6 |  | 34.5 ± 0.2 °C
7 | B7 |  | 38.8 ± 0.3 °C
8 | B8 |  | 35.0 ± 0.5 °C
9 | B9 |  | 28.7 ± 1.4 °C
10 | B10 |  | 35.6 °C and 35.6 ± 0.5 °C
